# Source: IntAct's records for PubMed 16525023
# B1: 1-phosphatidylinositol 4,5-bisphosphate phosphodiesterase gamma-1 (Homo sapiens), P19174 (parent)
# chain: MAGAASPCANGCGPGAPSDAEVLHLCRSLEVGTVMTLFYSKKSQRPERKTFQVKLETRQITWSRGADKIEGAIDIREIKEIRPGKTSRDFDRYQEDPAFRPDQSHCFVILYGMEFRLKTLSLQATSEDEVNMWIKGLTWLMEDTLQAPTPLQIERWLRKQFYSVDRNREDRISAKDLKNMLSQVNYRVPNMRFLRERLTDLEQRSGDITYGQFAQLYRSLMYSAQKTMDLPFLEASTLRAGERPELCRVSLPEFQQFLLDYQGELWAVDRLQVQEFMLSFLRDPLREIEEPYFFLDEFVTFLFSKENSVWNSQLDAVCPDTMNNPLSHYWISSSHNTYLTGDQFSSESSLEAYARCLRMGCRCIELDCWDGPDGMPVIYHGHTLTTKIKFSDVLHTIKEHAFVASEYPVILSIEDHCSIAQQRNMAQYFKKVLGDTLLTKPVEISADGLPSPNQLKRKILIKHKKLAEGSAYEEVPTSMMYSENDISNSIKNGILYLEDPVNHEWYPHYFVLTSSKIYYSEETSSDQGNEDEEEPKEVSSSTELHSNEKWFHGKLGAGRDGRHIAERLLTEYCIETGAPDGSFLVRESETFVGDYTLSFWRNGKVQHCRIHSRQDAGTPKFFLTDNLVFDSLYDLITHYQQVPLRCNEFEMRLSEPVPQTNAHESKEWYHASLTRAQAEHMLMRVPRDGAFLVRKRNEPNSYAISFRAEGKIKHCRVQQEGQTVMLGNSEFDSLVDLISYYEKHPLYRKMKLRYPINEEALEKIGTAEPDYGALYEGRNPGFYVEANPMPTFKCAVKALFDYKAQREDELTFIKSAIIQNVEKQEGGWWRGDYGGKKQLWFPSNYVEEMVNPVALEPEREHLDENSPLGDLLRGVLDVPACQIAIRPEGKNNRLFVFSISMASVAHWSLDVAADSQEELQDWVKKIREVAQTADARLTEGKIMERRKKIALELSELVVYCRPVPFDEEKIGTERACYRDMSSFPETKAEKYVNKAKGKKFLQYNRLQLSRIYPKGQRLDSSNYDPLPMWICGSQLVALNFQTPDKPMQMNQALFMTGRHCGYVLQPSTMRDEAFDPFDKSSLRGLEPCAISIEVLGARHLPKNGRGIVCPFVEIEVAGAEYDSTKQKTEFVVDNGLNPVWPAKPFHFQISNPEFAFLRFVVYEEDMFSDQNFLAQATFPVKGLKTGYRAVPLKNNYSEDLELASLLIKIDIFPAKENGDLSPFSGTSLRERGSDASGQLFHGRAREGSFESRYQQPFEDFRISQEHLADHFDSRERRAPRRTRVNGDNRL
# Variants of: B1
# Settings: with akt1_human AKT1, P31749
# Sequence of akt1_human AKT1, P31749 (P31749 whole entry): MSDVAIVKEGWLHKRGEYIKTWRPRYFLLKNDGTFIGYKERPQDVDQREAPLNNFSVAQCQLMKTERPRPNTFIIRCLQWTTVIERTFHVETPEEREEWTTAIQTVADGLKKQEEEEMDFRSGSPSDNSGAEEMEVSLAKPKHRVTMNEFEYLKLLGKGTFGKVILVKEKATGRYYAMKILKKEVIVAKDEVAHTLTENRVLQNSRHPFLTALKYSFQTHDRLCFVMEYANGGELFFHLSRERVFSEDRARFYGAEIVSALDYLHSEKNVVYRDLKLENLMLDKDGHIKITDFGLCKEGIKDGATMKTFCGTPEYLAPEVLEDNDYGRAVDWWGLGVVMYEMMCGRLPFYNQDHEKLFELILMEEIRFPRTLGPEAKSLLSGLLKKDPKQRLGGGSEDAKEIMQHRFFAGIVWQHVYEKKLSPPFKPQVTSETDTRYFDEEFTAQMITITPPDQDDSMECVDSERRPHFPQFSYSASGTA
row,effect of a mutation on the interaction,Variant
1,decreasing interaction,Y771F
2,disrupting interaction,Y783F
